# Data as given in US20130315910A1 (Xencor, published 2013).
# T1: human FcγRIIb receptor protein (R&D Systems) (human, UniProt P31994 46-217)
# T1 construct: Bought protein injected over captured antibody in Biacore; also called CD32b
# T1 sequence (looked up): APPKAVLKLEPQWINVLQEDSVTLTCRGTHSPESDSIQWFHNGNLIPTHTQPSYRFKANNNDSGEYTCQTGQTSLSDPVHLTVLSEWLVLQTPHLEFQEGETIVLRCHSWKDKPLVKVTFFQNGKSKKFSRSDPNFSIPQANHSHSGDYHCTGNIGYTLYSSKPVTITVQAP
# T2: human FcγRIIa (131R), His- and GST-tagged (human, UniProt P12318 34-217)
# T2 construct: Expressed in HEK293T cells, purified by nickel chromatography; also called R131 FcγRIIa; not shown: 6xHis and GST tags of the pTT5 vector
# T2 sequence (looked up): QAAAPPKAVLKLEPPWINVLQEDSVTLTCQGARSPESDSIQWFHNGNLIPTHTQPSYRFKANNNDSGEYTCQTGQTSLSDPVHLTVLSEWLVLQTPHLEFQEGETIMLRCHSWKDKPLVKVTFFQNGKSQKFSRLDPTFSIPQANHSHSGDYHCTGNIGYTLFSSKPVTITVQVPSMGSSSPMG
# T3: human FcγRIIa (131H), His- and GST-tagged (human, UniProt P12318 34-217)
# T3 construct: also called H131 FcγRIIa; HIIa; not shown: 6xHis and GST tags of the pTT5 vector
# T3 sequence (looked up): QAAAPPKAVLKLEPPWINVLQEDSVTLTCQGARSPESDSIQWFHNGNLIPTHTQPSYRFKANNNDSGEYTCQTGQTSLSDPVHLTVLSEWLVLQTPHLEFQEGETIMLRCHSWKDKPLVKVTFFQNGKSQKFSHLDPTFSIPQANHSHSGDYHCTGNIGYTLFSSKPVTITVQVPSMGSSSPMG
# T4: mFcγRIIb (Mus musculus, UniProt P08101)
# T4 construct: extracellular region, C-terminal His- and GST-tag; also called mouse FcγRII
# T4 sequence (receptor extracellular region, looked up): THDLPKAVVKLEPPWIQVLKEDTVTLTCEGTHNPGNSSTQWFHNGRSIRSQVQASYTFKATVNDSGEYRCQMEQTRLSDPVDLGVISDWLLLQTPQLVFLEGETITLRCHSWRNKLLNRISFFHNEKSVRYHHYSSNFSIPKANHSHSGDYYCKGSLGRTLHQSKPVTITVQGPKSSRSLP
# T5: mFcγRIV
# T5 construct: also called mouse FcγRIV; not shown: C-terminal His and GST tags (named only on our card)
# T5 chain: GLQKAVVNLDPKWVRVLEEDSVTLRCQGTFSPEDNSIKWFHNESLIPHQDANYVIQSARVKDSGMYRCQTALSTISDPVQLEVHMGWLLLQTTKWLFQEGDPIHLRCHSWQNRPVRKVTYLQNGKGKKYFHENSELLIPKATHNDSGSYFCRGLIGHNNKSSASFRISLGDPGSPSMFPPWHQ
# T6: cynoFcγRIIb (Macaca fascicularis, UniProt A0A140HDP4)
# T6 construct: extracellular region, C-terminal His- and GST-tag; also called cynomolgus monkey FcγRIIb
# T6 sequence (receptor extracellular region): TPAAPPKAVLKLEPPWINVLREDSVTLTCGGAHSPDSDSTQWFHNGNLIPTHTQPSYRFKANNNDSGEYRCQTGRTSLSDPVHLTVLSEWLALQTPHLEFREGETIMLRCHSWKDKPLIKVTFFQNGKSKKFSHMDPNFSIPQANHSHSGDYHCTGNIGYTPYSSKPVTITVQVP
# B1: G237A (antibody, human IgG1, kappa)
# heavy: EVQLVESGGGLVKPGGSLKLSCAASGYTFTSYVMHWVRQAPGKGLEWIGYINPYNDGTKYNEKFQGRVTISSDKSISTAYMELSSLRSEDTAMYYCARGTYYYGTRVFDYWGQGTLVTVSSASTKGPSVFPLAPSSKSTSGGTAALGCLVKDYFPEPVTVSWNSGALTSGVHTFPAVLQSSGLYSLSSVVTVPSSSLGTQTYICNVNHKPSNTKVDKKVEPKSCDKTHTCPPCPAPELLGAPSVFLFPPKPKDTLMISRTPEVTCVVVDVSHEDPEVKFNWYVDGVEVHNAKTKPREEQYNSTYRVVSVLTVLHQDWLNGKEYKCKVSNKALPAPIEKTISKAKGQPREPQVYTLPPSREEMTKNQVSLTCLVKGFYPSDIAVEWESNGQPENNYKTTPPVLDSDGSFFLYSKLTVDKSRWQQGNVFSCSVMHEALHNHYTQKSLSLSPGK
# light: DIVMTQSPATLSLSPGERATLSCRSSKSLQNVNGNTYLYWFQQKPGQSPQLLIYRMSNLNSGVPDRFSGSGSGTEFTLTISSLEPEDFAVYYCMQHLEYPITFGAGTKLEIKRTVAAPSVFIFPPSDEQLKSGTASVVCLLNNFYPREAKVQWKVDNALQSGNSQESVTEQDSKDSTYSLSSTLTLSKADYEKHKVYACEVTHQGLSSPVTKSFNRGEC
# notes: HuAM4G7 anti-CD19 IgG1 (m1) with this Fc substitution, EU index; copies: 2 + 2
# B2: anti-CD19 antibody HuAM4G7 IgG1 ^236R/L328R (antibody)
# heavy: EVQLVESGGGLVKPGGSLKLSCAASGYTFTSYVMHWVRQAPGKGLEWIGYINPYNDGTKYNEKFQGRVTISSDKSISTAYMELSSLRSEDTAMYYCARGTYYYGTRVFDYWGQGTLVTVSSASTKGPSVFPLAPSSKSTSGGTAALGCLVKDYFPEPVTVSWNSGALTSGVHTFPAVLQSSGLYSLSSVVTVPSSSLGTQTYICNVNHKPSNTKVDKKVEPKSCDKTHTCPPCPAPELLGRGPSVFLFPPKPKDTLMISRTPEVTCVVVDVSHEDPEVKFNWYVDGVEVHNAKTKPREEQYNSTYRVVSVLTVLHQDWLNGKEYKCKVSNKARPAPIEKTISKAKGQPREPQVYTLPPSREEMTKNQVSLTCLVKGFYPSDIAVEWESNGQPENNYKTTPPVLDSDGSFFLYSKLTVDKSRWQQGNVFSCSVMHEALHNHYTQKSLSLSPGK
# light: DIVMTQSPATLSLSPGERATLSCRSSKSLQNVNGNTYLYWFQQKPGQSPQLLIYRMSNLNSGVPDRFSGSGSGTEFTLTISSLEPEDFAVYYCMQHLEYPITFGAGTKLEIKRTVAAPSVFIFPPSDEQLKSGTASVVCLLNNFYPREAKVQWKVDNALQSGNSQESVTEQDSKDSTYSLSSTLTLSKADYEKHKVYACEVTHQGLSSPVTKSFNRGEC
# notes: also called Fc-KO; FcγR knockout
# B3: anti-CD19 antibody HuAM4G7 IgG1 G236D/S267E (antibody)
# heavy: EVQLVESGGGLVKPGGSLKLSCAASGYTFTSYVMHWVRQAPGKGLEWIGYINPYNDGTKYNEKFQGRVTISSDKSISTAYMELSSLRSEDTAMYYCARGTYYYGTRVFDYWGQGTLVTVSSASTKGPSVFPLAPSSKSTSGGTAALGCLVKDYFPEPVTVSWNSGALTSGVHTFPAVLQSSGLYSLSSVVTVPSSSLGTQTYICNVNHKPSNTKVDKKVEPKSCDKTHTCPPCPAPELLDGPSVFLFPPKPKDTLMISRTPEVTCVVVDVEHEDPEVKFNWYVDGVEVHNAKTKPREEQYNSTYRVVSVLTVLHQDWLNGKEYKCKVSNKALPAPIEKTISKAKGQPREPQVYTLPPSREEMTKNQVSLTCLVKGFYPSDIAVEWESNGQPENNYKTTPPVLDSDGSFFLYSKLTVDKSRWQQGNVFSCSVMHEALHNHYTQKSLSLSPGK
# light: DIVMTQSPATLSLSPGERATLSCRSSKSLQNVNGNTYLYWFQQKPGQSPQLLIYRMSNLNSGVPDRFSGSGSGTEFTLTISSLEPEDFAVYYCMQHLEYPITFGAGTKLEIKRTVAAPSVFIFPPSDEQLKSGTASVVCLLNNFYPREAKVQWKVDNALQSGNSQESVTEQDSKDSTYSLSSTLTLSKADYEKHKVYACEVTHQGLSSPVTKSFNRGEC
# notes: Positions in EU numbering; copies: 2 + 2
# B4: anti-CD19 antibody HuAM4G7 IgG1 G236R/L328R (antibody)
# heavy: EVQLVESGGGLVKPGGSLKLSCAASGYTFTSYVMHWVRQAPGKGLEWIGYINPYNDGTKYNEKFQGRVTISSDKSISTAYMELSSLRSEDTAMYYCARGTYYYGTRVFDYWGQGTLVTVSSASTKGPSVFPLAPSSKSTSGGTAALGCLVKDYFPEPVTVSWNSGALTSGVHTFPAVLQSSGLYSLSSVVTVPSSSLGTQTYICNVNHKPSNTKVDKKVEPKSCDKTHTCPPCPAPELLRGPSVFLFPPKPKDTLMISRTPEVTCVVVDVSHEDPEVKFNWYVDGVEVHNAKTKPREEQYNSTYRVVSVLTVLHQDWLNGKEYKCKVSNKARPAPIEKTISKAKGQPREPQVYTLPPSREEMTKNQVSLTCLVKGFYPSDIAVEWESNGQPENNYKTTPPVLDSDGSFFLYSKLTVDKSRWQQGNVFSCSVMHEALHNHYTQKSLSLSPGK
# light: DIVMTQSPATLSLSPGERATLSCRSSKSLQNVNGNTYLYWFQQKPGQSPQLLIYRMSNLNSGVPDRFSGSGSGTEFTLTISSLEPEDFAVYYCMQHLEYPITFGAGTKLEIKRTVAAPSVFIFPPSDEQLKSGTASVVCLLNNFYPREAKVQWKVDNALQSGNSQESVTEQDSKDSTYSLSSTLTLSKADYEKHKVYACEVTHQGLSSPVTKSFNRGEC
# notes: Control knock out variant; Positions in EU numbering; also called Fc-KO; FcγR knockout
# B5: V266D (antibody, human IgG1, kappa)
# heavy: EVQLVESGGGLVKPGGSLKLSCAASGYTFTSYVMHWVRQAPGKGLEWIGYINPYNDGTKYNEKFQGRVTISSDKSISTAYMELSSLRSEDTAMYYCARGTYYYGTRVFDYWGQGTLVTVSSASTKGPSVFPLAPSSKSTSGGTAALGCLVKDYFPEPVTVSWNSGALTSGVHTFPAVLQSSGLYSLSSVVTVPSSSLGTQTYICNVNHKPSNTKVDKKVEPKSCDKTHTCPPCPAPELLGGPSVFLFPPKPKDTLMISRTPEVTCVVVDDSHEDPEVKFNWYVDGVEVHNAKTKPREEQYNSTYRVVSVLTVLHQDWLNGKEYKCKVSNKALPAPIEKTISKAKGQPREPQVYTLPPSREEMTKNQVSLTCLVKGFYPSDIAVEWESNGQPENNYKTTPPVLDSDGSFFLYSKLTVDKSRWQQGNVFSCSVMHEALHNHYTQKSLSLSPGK
# light: DIVMTQSPATLSLSPGERATLSCRSSKSLQNVNGNTYLYWFQQKPGQSPQLLIYRMSNLNSGVPDRFSGSGSGTEFTLTISSLEPEDFAVYYCMQHLEYPITFGAGTKLEIKRTVAAPSVFIFPPSDEQLKSGTASVVCLLNNFYPREAKVQWKVDNALQSGNSQESVTEQDSKDSTYSLSSTLTLSKADYEKHKVYACEVTHQGLSSPVTKSFNRGEC
# notes: as for B1
# Key:
# [1] = target: T1, human FcγRIIb receptor protein (R&D …); test: SPR
# [2] = target: T7, human FcγRI receptor protein (R&D Systems) (human, UniProt P12314 16-288); test: SPR
# T7 construct: also called soluble FcγRI; solFcγRI
# [3] = target: T2, human FcγRIIa (131R), His- and …; test: SPR
# [4] = target: T3, human FcγRIIa (131H), His- and …; test: SPR
# [5] = target: T8, human FcγRIIIa (158V), His- and GST-tagged (human, UniProt P08637 17-208); test: SPR
# T8 construct: also called V158 FcγRIIIa; VIIIa; not shown: 6xHis and GST tags of the pTT5 vector
# mFcγRIIb = target: T4, mFcγRIIb; test: SPR, off-rate
# mFcγRIV = target: T5, mFcγRIV; test: SPR, off-rate
# cynoFcγRIIb = target: T6, cynoFcγRIIb; test: SPR, off-rate
# cynoFcγRIIIa = target: T9, cynoFcγRIIIa (Macaca fascicularis, UniProt Q8SPW2); test: SPR, off-rate
# T9 construct: extracellular region, C-terminal His- and GST-tag; also called cynomolgus monkey FcγRIIIa
# [6] = target: T10, human FcγRIIIa (158F), His- and GST-tagged (human, UniProt P08637 17-208); test: SPR
# T10 construct: also called F158 FcγRIIIa; not shown: 6xHis and GST tags of the pTT5 vector
# T10 sequence (P08637 17-208): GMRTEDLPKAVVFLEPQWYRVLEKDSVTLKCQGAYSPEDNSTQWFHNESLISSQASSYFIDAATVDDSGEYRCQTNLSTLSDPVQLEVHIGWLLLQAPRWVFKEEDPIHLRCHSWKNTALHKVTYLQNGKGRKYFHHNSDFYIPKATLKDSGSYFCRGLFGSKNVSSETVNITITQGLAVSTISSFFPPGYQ
# T9 sequence (Q8SPW2 17-208): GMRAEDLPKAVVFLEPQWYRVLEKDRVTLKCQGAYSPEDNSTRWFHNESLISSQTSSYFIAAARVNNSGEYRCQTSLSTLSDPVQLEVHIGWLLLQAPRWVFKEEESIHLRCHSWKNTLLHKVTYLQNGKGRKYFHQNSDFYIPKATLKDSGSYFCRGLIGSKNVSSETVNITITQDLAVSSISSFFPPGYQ
# T8 sequence (P08637 17-208 F176V): as the sequence (P08637 17-208) above, with F160V counted along it
# T7 sequence (P12314 16-288 limits assumed): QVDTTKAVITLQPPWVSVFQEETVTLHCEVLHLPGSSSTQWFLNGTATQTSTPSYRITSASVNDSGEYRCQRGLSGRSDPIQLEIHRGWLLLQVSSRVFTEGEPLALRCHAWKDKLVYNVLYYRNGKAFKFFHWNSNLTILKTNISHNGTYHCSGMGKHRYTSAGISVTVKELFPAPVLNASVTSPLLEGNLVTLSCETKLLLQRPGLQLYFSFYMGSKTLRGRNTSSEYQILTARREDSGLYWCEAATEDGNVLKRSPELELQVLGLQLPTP
Binder,Fold vs WT IgG1 [1] [fold],Kd [1] [nM],Fold vs WT IgG1 [2] [fold],Kd [2] [nM],Fold vs WT IgG1 [3] [fold],Kd [3] [nM],binding result [4],binding result [5],binding result (mFcγRIIb),binding result (mFcγRIV),binding result (cynoFcγRIIb),binding result (cynoFcγRIIIa),binding result [1],binding result [2],binding result [3],binding result [6],Kd [4] [nM],Kd [5] [nM]
B1,0.191,7680,0.0108,30.5,0.704,1220,no binding,no binding,no binding,no binding,no binding,no binding,,,,,,
B2,,,,,,,no binding,no binding,,,,,no binding,no binding,no binding,no binding,,
B3,,26.6,,3.71,,,,,no binding,no binding,no binding,no binding,,,,,2730,579
B4,,,,,,,no binding,no binding,,,,,no binding,no binding,no binding,no binding,,
B5,0.147,10000,,,0.704,1220,,,no binding,no binding,no binding,no binding,,,,,,
